From patent publication US20200317791A1

How the values were obtained:
[1] = target: T1, HLA-Cw6/ADAMTSL5-Abu on rhHLA-Cw6 expressing cells loaded with ADAM-Abu peptide (human), P10321
[2] = target: T1, HLA-Cw6/ADAMTSL5-Abu on rhHLA-Cw6 …; assay: cell-based or functional assay

Row | IC50 (read off the curve) [1] | IL-2 % Inhibition (8.5 nM mAb), HLA-Cw6-00254 [2] | IL-2 % Inhibition (8.5 nM mAb), HLA-Cw6-00290 [2] | Binder
1 | 0.2 µg/mL | – | 86% | CW6B238 (antibody, V domains shown) VH: QVTLKESGPVLVKPTETLTLTCTVSGFSLNNARMGVSWIRQPPGKALEWLAHMFSSDEKFYRTSLKSRLTISKDTSKSQVVLTMTNMDPVDTATYYCARISLYSSGHDTFDLWGQGTMVTVSS VL: AIQMTQSPSSLSASVGDRVTITCRASQDIRNTLGWYQQKPGKAPNLLIYAASSLQSGVPSRFSGSGSGTDFTLTISSLQPEDFATYYCLQDYDYPLTFGGGTKVEIK
2 | 0.2 µg/mL | – | 86% | CW6B229 (antibody, V domains shown) VH: QVQLQESGPGLVKPSETLSLTCTVSGNSIRSYYWSWIRQPAGKGLEWIGRIYISGNTNYNPSLKSRVTMSIDTSKNQFSLKLSSVTAADTAVFYCARLSGIDAFDIWGQGTMVTVSS VL: DIQMTQSPSSLSASVGDRVTITCQASQDISNYLNWYQQKPGKAPKLLIYDASNLETGVPSRFSGSGSGTDFTFTISSLQPEDFATYYCQQYDNLPITFGQGTRLEIK
3 | 0.2 µg/mL | – | 93% | CW6B230 (antibody, V domains shown) VH: QVQLQESGPGLVKPSETLSLTCTVSGNSISNYYWSWIRQPAGKGLEWIGRIYITGNTNYNPSLKSRVTMSLDTSKNQFSLKLSSVTAADTAVYYCARLSGIDAFDIWGQGTMVTVSS VL: DIQMTQSPSTLSASVGDRVTFTCQASQDITKYLNWYQQKPGKAPKLLIYDASNLETGVPSRFSGSGSGTDFTFTISSLQPEDFATYYCQQYDDLPITFGQGTRLEIK
4 | 0.2 µg/mL | – | 91% | CW6B233 (antibody, V domains shown) VH: QVQLQESGPGLVKPSETLSLTCTVSGNSIRSYYWSWIRQPAGKGLEWIGRIYISGNTNYNPSLKSRVTMSIDTSKNQFSLKLSSVTAADTAVYYCARLSGIDAFDIWGQGTMVTVSS VL: DIQMTQSPSSLSASVGDRVTITCQASQDITNYLNWYQQKPGKAPKLLIYDASNLETGVPSRFSGSGSGTDFTFTISSLQPEDFATYYCQQYDNLPITFGQGTRLEIK
5 | – | – | 59% | CW6B237 (antibody, V domains shown) VH: QVTLKESGPVLVKPTETLTLTCTVSGFSLSNARMGVSWIRQPPGKALEWLAHIFSHDEKFYSTFLKSRLTISKDTSKSQVVLMMTNMDPVDTATYYCARIILSSSGHDAFDIWGQGTMVTVSS VL: AIQMTQSPSSLSASVGDRVTITCRASQDIRHNLGWYQQKPGKAPNLLIYAASSLQSGVPSRFSGSGSGTDFILTISSLQPEDFATFFCLQDYIYPLTFGGGTKVEIK

The remaining lines, values behind:

Row | Binder | IC50 (read off the curve) [1] | IL-2 % Inhibition (8.5 nM mAb), HLA-Cw6-00254 [2] | IL-2 % Inhibition (8.5 nM mAb), HLA-Cw6-00290 [2]
6 | CW6B130 (antibody, V domains shown) VH: QLQLQESGPGLVKPSETLSLTCTVSGASISSINYYWGWIRQPPGKGLEWIGSFYYSGNTYYNPSLKSRVTISVDTSKNYFSLKLNSVTAADTAVYYCAREYYDSSGYYPFEPWGQGTLVTVSS VL: SYVLTQPPSVSVAPGQTARITCGGDNIGSESVHWYQQKPGQAPVLVVYDDTDRPSGIPERFSGSKSGTTATLTISWVEAGDEADYYCQVWDSSSDHVVFGGGTKLTVL | 0.03 µg/mL | 100% | 100%
7 | CW6B188 (antibody, V domains shown) VH: EVQLVESGGGLVQPGGSLRLSCAASGFTFTNYWMTWVRQAPGKGLEWVANIKQSGNEKYYVDSVKGRFTISRDNAKNSLYLQMNSLRAEDTAVYYCARTLYEWELEPFDYWGQGTLVTVSS VL: SYVLTQPPSVSVAPGQTARITCGGNRIGSKNLHWYQQKPGQAPVLVVYDDSDRPSGIPERFSGSNSGSTATLTISRVEAGDEADYYCQVWDSSRDHVVFGGGTKLTVL | – | 9% | –
8 | CW6B175 (antibody, V domains shown) VH: EVQLVESGGGLVQPGGSLRLSCAASGFTFTNYWMTWVRQAPGKGLEWVANIKQSGSEKYYVDSVKGRFTISRDNAKNSLYLQMNSLRAEDTAVYYCARTLYEWELEPFDYWGQGTLVTVSS VL: SYVLTQPPSVSVAPGQTARITCGGNRIGSKSVHWYQQKPGQAPVLVVFDDSDRPSGIPERFSGSNSGITATLTISRVEAGDEADYYCQVWDSSNDHVVFGGGTKLTVL | 0.2 µg/mL | 85% | 96%
9 | CW6B228 (antibody, V domains shown) VH: QVQLQESGPGLVKPSETLSLTCTVSGNSIRSYYWSWIRQPAGKGLEWIGRIYISGNTNYNPSLKSRVTMSIDTSKNQFSLKLSSVTAADTAVYYCARLSGIDAFDIWGQGTMVTVSS VL: DIQMTQSPSSLSASVGDRVTITCQASQDINNYLNWYQQKPGKAPKLLIYDASSLETGVPSRFSGSGSGTDFTFTISSLQPEDFATYYCQQYDDLPITFGQGTRLEIK | – | – | 100%
